In patent publication US20260152527A1 (SIGHTSTREAM BIOTHERAPEUTICS, published 2026):
Starred links: 1 amine or outer side, 2 acyl side, 3 side chain; linkers in the order of their positions; H or OH if unused. Positions of bridges follow the written chain, without caps; N, C: chain ends. Non-standard residues stand in square brackets, D forms with d. *: point of attachment. dPhe(4-CF3) = N[C@H](Cc1ccc(C(F)(F)F)cc1)C(=O)O; Benzoyl(3,5-(OH)2) = O=C(c1cc(O)cc(O)c1)*; dLys(N3) = [N-]=[N+]=NCCCC[C@@H](N)C(=O)O; NMeW = CN[C@@H](Cc1c[nH]c2ccccc12)C(=O)O; Lys(N3) = [N-]=[N+]=NCCCC[C@H](N)C(=O)O; mXylylene = c1cc(C[*:1])cc(C[*:2])c1; NMeH = CN[C@@H](Cc1c[nH]cn1)C(=O)O; NMeR = CN[C@@H](CCCNC(=N)N)C(=O)O; NMeF = CN[C@@H](Cc1ccccc1)C(=O)O; dNMeF = CN[C@H](Cc1ccccc1)C(=O)O; hArg = N=C(N)NCCCC[C@H](N)C(=O)O; Nle = CCCC[C@H](N)C(=O)O; Pra = C#CC[C@H](N)C(=O)O

B1: KR-053 (peptide)
peptide: {Benzoyl(3,5-(OH)2)}-[Nle][Lys(N3)]H[dF]RW[Pra]K-NH2
modifications: triazole 2-7; not fully specified; printed as HyBA-Nle-[Lys(N3)-His-DPhe-Arg-Trp-Pra]-Lys-NH2
B2: KR-054 (peptide)
peptide: Ac-[Nle][Lys(N3)]H[dF][hArg]W[Pra]K-NH2
modifications: triazole 2-7; not fully specified; printed as Ac-Nle-[Lys(N3)-His-DPhe-HArg-Trp-Pra]-Lys-NH2
B3: KR-056 (peptide)
peptide: Ac-[Nle][Lys(N3)]H[dF]RW[Pra]N-NH2
modifications: triazole 2-7; not fully specified; printed as Ac-Nle-[Lys(N3)-His-DPhe-Arg-Trp-Pra]-Asn-NH2
B4: KR-069 (peptide)
peptide: Ac-[Nle][dLys(N3)]H[dF]RW[Pra]K-NH2
modifications: triazole 2-7; not fully specified; printed as Ac-Nle-[DLys(N3)-His-DPhe-Arg-Trp-Pra]-Lys-NH2
B5: KR-011 (peptide)
peptide: {CH2CO}-EHFRWC-NH2
modifications: thioether N-6
SMILES: N=C(N)NCCC[C@@H]1NC(=O)[C@H](Cc2ccccc2)NC(=O)[C@H](Cc2c[nH]cn2)NC(=O)[C@H](CCC(=O)O)NC(=O)CSC[C@@H](C(N)=O)NC(=O)[C@H](Cc2c[nH]c3ccccc23)NC1=O
B6: KR-012 (peptide)
peptide: Ac-EHFRWGC-NH2
modifications: bridge N-7; not fully specified (bridges); printed as Cyclo(-Ac-Glu-His-Phe-Arg-Trp-Gly-Cys)-NH2

target: human recombinant MC1R (CHO-K1 stable cell line, GenScript) (human, UniProt Q01726 1-317); test: cell-based or functional assay
Sequence (Q01726 whole entry): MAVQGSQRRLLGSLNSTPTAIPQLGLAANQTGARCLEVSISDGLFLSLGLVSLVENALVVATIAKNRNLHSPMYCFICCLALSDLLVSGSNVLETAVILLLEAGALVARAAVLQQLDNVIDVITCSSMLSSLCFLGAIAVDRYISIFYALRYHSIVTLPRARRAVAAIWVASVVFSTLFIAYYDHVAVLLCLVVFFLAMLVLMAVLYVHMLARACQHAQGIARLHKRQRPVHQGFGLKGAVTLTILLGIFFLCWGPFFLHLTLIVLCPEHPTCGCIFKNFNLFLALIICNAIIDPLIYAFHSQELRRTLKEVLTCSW

First: Ac-[Nle][Lys(N3)]H[dPhe(4-CF3)]RW[Pra]-NH2 (triazole 2-7) [KR-048]
Second: Ac-SYSMEHFRWGKP-NH2 [KR-005]
The “MC1R IC50” value of the first is 1.9-fold higher: 0.18 nM for the first, 0.093 nM for the second.

First: Ac-[Nle][Lys(N3)]H[dF][NMeR][NMeW][Pra]-NH2 (triazole 2-7) [KR-050]
Second: Ac-[Nle][Lys(N3)][NMeH][dF]R[NMeW][Pra]-NH2 (triazole 2-7) [KR-051]
The “MC1R IC50” value of the first is 1.9-fold higher: 0.081 nM for the first, 0.043 nM for the second.

First: Ac-[Nle][Lys(N3)][NMeH][dF][NMeR]W[Pra]-NH2 (triazole 2-7; not fully specified) [KR-052]
Second: B1
The “MC1R IC50” value of the first is 300-fold higher: 2.68 nM for the first, 0.0089 nM for the second.

Compared with B2, B3 is 1.8-fold lower in “MC1R IC50” value: 0.093 nM for the first, 0.052 nM for the second.

First: B4
Second: B5
The “MC1R IC50” value of the first is 7.8-fold lower: 16.5 nM for the first, 128 nM for the second.

Compared with B6, Ac-SYSMEH[NMeF]RWGKPV-NH2 [KR-022] is higher in “MC1R IC50” value: 20 nM for the first, > 200 nM for the second.

Compared with Ac-SYSMEHF[NMeR]WGKPV-NH2 [KR-023], Ac-SYSMEHFR[NMeW]GKPV-NH2 [KR-024] is 24-fold lower in “MC1R IC50” value: 21.2 nM for the first, 0.88 nM for the second.

In the case of Ac-SYSMEH[dNMeF]RWGKPV-NH2 [KR-025], the “MC1R IC50” value is reported as 17.8 nM.

target: human recombinant MC3R (CHO-K1/Gα15 stable cell line, GenScript) (human, UniProt P41968 1-323); test: cell-based or functional assay
Sequence (P41968 whole entry): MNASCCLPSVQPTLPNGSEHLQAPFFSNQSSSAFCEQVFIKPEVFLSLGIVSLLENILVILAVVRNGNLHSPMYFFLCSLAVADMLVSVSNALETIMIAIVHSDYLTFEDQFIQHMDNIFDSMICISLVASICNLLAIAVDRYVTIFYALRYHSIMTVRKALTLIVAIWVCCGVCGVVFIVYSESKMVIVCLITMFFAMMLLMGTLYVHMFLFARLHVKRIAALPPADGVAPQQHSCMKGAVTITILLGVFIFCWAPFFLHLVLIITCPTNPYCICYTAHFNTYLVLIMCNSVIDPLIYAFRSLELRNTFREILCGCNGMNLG

First: Ac-[Nle]CH[dF]RCW-NH2 (linker 2-6 via mXylylene) [KR-032]
Second: Ac-[Nle][Lys(N3)]H[dPhe(4-CF3)]RW[Pra]-NH2 (triazole 2-7) [KR-048]
The “MC3R IC50” value of the first is lower: 1330 nM for the first, > 50000 nM for the second.

First: Ac-SYSMEHFRWGKP-NH2 [KR-005]
Second: Ac-[Nle][Lys(N3)]H[dF][NMeR][NMeW][Pra]-NH2 (triazole 2-7) [KR-050]
The “MC3R IC50” value of the first is 30-fold lower: 149 nM for the first, 4480 nM for the second.

Compared with Ac-[Nle][Lys(N3)][NMeH][dF]R[NMeW][Pra]-NH2 (triazole 2-7) [KR-051], Ac-[Nle][Lys(N3)][NMeH][dF][NMeR]W[Pra]-NH2 (triazole 2-7; not fully specified) [KR-052] is higher in “MC3R IC50” value: 77.5 nM for the first, > 50000 nM for the second.

B1 and B2 are within 1.5-fold of each other in “MC3R IC50” value: 78.1 nM for the first, 67.8 nM for the second.

First: B3
Second: B5
The “MC3R IC50” value of the first is lower: 66.5 nM for the first, > 50000 nM for the second.

Going from B6 to Ac-SYSME[NMeH]FRWGKPV-NH2 [KR-021], the “MC3R IC50” value falls from 5570 nM to 445 nM (13-fold).

Going from Ac-SYSMEH[NMeF]RWGKPV-NH2 [KR-022] to Ac-SYSMEHF[NMeR]WGKPV-NH2 [KR-023], the “MC3R IC50” value falls from > 50000 nM to 13400 nM.

Compared with Ac-SYSMEHFR[NMeW]GKPV-NH2 [KR-024], Ac-SYSMEH[dNMeF]RWGKPV-NH2 [KR-025] is higher in “MC3R IC50” value: 515 nM for the first, > 50000 nM for the second.

target: human recombinant MC4R (CHO-K1/Gα15 stable cell line, GenScript) (human, UniProt P32245 1-332); test: cell-based or functional assay
Sequence (P32245 whole entry): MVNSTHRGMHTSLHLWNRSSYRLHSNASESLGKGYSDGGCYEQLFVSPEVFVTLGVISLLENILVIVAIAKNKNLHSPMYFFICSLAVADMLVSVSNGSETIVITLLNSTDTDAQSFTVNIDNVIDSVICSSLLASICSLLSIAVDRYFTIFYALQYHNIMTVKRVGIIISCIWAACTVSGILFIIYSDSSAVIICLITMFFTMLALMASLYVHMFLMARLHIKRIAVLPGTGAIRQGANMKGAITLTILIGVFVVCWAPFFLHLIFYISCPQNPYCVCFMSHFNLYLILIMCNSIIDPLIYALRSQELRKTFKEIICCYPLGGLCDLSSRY

Ac-[Nle]CH[dF]RCW-NH2 (linker 2-6 via mXylylene) [KR-032] and Ac-[Nle][Lys(N3)]H[dPhe(4-CF3)]RW[Pra]-NH2 (triazole 2-7) [KR-048] are within 1.5-fold of each other in “MC4R IC50” value: 194 nM for the first, 183 nM for the second.

Going from Ac-SYSMEHFRWGKP-NH2 [KR-005] to Ac-[Nle][Lys(N3)]H[dF][NMeR][NMeW][Pra]-NH2 (triazole 2-7) [KR-050], the “MC4R IC50” value rises from 67 nM to 242 nM (3.6-fold).

Ac-[Nle][Lys(N3)][NMeH][dF]R[NMeW][Pra]-NH2 (triazole 2-7) [KR-051] and Ac-[Nle][Lys(N3)][NMeH][dF][NMeR]W[Pra]-NH2 (triazole 2-7; not fully specified) [KR-052] are within 1.5-fold of each other in “MC4R IC50” value: 96.2 nM for the first, 122 nM for the second.

B1 and B2 are within 1.5-fold of each other in “MC4R IC50” value: 39.8 nM for the first, 31.9 nM for the second.

B3 and B4 are within 1.5-fold of each other in “MC4R IC50” value: 23.1 nM for the first, 30.9 nM for the second.

First: B5
Second: B6
The “MC4R IC50” value of the first is 6.5-fold higher: 104 nM for the first, 16 nM for the second.

target: human recombinant MC5R (CHO-K1/Ga15 stable cell line, GenScript) (human, UniProt P33032 1-325); test: cell-based or functional assay
Sequence (P33032 whole entry): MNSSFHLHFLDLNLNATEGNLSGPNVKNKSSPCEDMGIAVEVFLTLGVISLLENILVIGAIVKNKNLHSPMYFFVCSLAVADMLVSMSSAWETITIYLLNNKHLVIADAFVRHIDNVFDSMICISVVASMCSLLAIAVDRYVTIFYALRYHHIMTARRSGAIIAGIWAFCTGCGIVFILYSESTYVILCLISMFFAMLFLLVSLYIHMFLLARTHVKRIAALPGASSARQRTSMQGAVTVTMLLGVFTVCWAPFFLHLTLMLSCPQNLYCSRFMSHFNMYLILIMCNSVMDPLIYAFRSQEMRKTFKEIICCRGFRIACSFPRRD

Compared with Ac-[Nle]CH[dF]RCW-NH2 (linker 2-6 via mXylylene) [KR-032], Ac-[Nle][Lys(N3)]H[dPhe(4-CF3)]RW[Pra]-NH2 (triazole 2-7) [KR-048] is 10-fold lower in “MC5R IC50” value: 489 nM for the first, 48.8 nM for the second.

Compared with Ac-SYSMEHFRWGKP-NH2 [KR-005], Ac-[Nle][Lys(N3)]H[dF][NMeR][NMeW][Pra]-NH2 (triazole 2-7) [KR-050] is 2.9-fold higher in “MC5R IC50” value: 79.8 nM for the first, 234 nM for the second.

Going from Ac-[Nle][Lys(N3)][NMeH][dF]R[NMeW][Pra]-NH2 (triazole 2-7) [KR-051] to Ac-[Nle][Lys(N3)][NMeH][dF][NMeR]W[Pra]-NH2 (triazole 2-7; not fully specified) [KR-052], the “MC5R IC50” value rises from 98.9 nM to 195 nM (2-fold).

B1 and B2 are within 1.5-fold of each other in “MC5R IC50” value: 120 nM for the first, 82.3 nM for the second.

Going from B3 to B4, the “MC5R IC50” value rises from 69.6 nM to 161 nM (2.3-fold).

Compared with Ac-SYSME[NMeH]FRWGKPV-NH2 [KR-021], Ac-SYSMEH[NMeF]RWGKPV-NH2 [KR-022] is 3.1-fold higher in “MC5R IC50” value: 225 nM for the first, 698 nM for the second.

Compared with Ac-SYSMEHF[NMeR]WGKPV-NH2 [KR-023], Ac-SYSMEH[dNMeF]RWGKPV-NH2 [KR-025] is 4.2-fold lower in “MC5R IC50” value: 4540 nM for the first, 1080 nM for the second.
